This is an account of results in publication PMC7251641.

Substrate in this data set: Nc1ncnc2c1ncn2[C@@H]1O[C@H](COP(=O)(O)OP(=O)(O)OP(=O)(O)O)[C@@H](O)[C@H]1O
The data set can be described thus: real-time fluorescent phosphate-release ATPase assay. It is filed as biochemical, Saccharomyces cerevisiae. The settings on record: nucleosome-stimulated, 15 nM nucleosomes, 23 °C.

Usually Km stands for the substrate concentration at which the rate is half of its maximum.

B1: SWI/SNF (Saccharomyces cerevisiae S288C) (protein)
chain: MNIPQRQFSNEEVNRCYLRWQHLRNEHGMNAPSVPEFIYLTKVLQFAAKQRQELQMQRQQQGISGSQQNIVPNSSDQAELPNNASSHISASASPHLAPNMQLNGNETFSTSAHQSPIMQTQMPLNSNGGNNMLPQRQSSVGSLNATNFSPTPANNGENAAEKPDNSNHNNLNLNNSELQPQNRSLQEHNIQDSNVMPGSQINSPMPQQAQMQQAQFQAQQAQQAQQAQQAQQAQARLQQGRRLPMTMFTAEQSELLKAQITSLKCLVNRKPIPFEFQAVIQKSINHPPDFKRMLLSLSEFARRRQPTDQNNQSNLNGGNNTQQPGTNSHYNNTNTDNVSGLTRNAPLDSKDENFASVSPAGPSSVHNAKNGTLDKNSQTVSGTPITQTESKKEENETISNVAKTAPNSNKTHTEQNNPPKPQKPVPLNVLQDQYKEGIKVVDIDDPDMMVDSFTMPNISHSNIDYQTLLANSDHAKFTIEPGVLPVGIDTHTATDIYQTLIALNLDTTVNDCLDKLLNDECTESTRENALYDYYALQLLPLQKAVRGHVLQFEWHQNSLLTNTHPNFLSKIRNINVQDALLTNQLYKNHELLKLERKKTEAVARLKSMNKSAINQYNRRQDKKNKRLKFGHRLIATHTNLERDEQKRAEKKAKERLQALKANDEEAYIKLLDQTKDTRITHLLRQTNAFLDSLTRAVKDQQKYTKEMIDSHIKEASEEVDDLSMVPKMKDEEYDDDDDNSNVDYYNVAHRIKEDIKKQPSILVGGTLKDYQIKGLQWMVSLFNNHLNGILADEMGLGKTIQTISLLTYLYEMKNIRGPYLVIVPLSTLSNWSSEFAKWAPTLRTISFKGSPNERKAKQAKIRAGEFDVVLTTFEYIIKERALLSKVKWVHMIIDEGHRMKNAQSKLSLTLNTHYHADYRLILTGTPLQNNLPELWALLNFVLPKIFNSVKSFDEWFNTPFANTGGQDKIELSEEETLLVIRRLHKVLRPFLLRRLKKDVEKELPDKVEKVVKCKMSALQQIMYQQMLKYRRLFIGDQNNKKMVGLRGFNNQIMQLKKICNHPFVFEEVEDQINPTRETNDDIWRVAGKFELLDRILPKLKATGHRVLIFFQMTQIMDIMEDFLRYINIKYLRLDGHTKSDERSELLRLFNAPDSEYLCFILSTRAGGLGLNLQTADTVIIFDTDWNPHQDLQAQDRAHRIGQKNEVRILRLITTNSVEEVILERAYKKLDIDGKVIQAGKFDNKSTSEEQEALLRSLLDAEEERRKKRESGVEEEEELKDSEINEILARNDEEMAVLTRMDEDRSKKEEELGVKSRLLEKSELPDIYSRDIGAELKREESESAAVYNGRGARERKTATYNDNMSEEQWLRQFEVSDDEKNDKQARKQRTKKEDKSEAIDGNGEIKGENIDADNDGPRINNISAEDRADTDLAMNDDDFLSKKRKAGRPRGRPKKVKLEGSENSEPPALESSPVTGDNSPSEDFMDIPKPRTAGKTSVKSARTSTRGRGRGRGRGRGRGRGRGRPPKARNGLDYVRTPAAATSPIDIREKVAKQALDLYHFALNYENEAGRKLSDIFLSKPSKALYPDYYMIIKYPVAFDNINTHIETLAYNSLKETLQDFHLIFSNARIYNTEGSVVYEDSLELEKVVTKKYCEIMGDNSQLDFTEFDEQYGTRPLVLPPVVTSSVAESFTDEADSSMTEASV
B1: the Km amounted to 80.5 µM.
